Assay [1] addresses MM-peptide.
The target in assay [2] is GnGn-peptide.
Assay [3] deals with GnGnF^6-peptide.
Assay [4] has as its target GnGn-peptide. This is another data set of the same source.

In the case of “recombinant GlcNAc-α1,3-fucosyl transferase (enzyme)”, in assay [1], the Rel. Activity was 0%. In addition, the values for the Km-Value in assay [2] and in assay [3] were 190 µM and 130 µM, respectively.
“GlcNAc-α1,3-fucosyl transferase isolated from mung bean seedlings (enzyme)”: the Specific activity in assay [4] is 43400 mU/mg.
